Reference: paper PMC4265565 (Protein expression and purification, 2012)

Biological target: XPB–p62–p44–p34 sub-complex (human, UniProt P19447 1-782; P32780 1-548; Q13888 1-395; Q13889 1-308)
Experiment: SEC

Sequence of XPB–p62–p44–p34 sub-complex (P19447 whole entry, chain 1 of 4): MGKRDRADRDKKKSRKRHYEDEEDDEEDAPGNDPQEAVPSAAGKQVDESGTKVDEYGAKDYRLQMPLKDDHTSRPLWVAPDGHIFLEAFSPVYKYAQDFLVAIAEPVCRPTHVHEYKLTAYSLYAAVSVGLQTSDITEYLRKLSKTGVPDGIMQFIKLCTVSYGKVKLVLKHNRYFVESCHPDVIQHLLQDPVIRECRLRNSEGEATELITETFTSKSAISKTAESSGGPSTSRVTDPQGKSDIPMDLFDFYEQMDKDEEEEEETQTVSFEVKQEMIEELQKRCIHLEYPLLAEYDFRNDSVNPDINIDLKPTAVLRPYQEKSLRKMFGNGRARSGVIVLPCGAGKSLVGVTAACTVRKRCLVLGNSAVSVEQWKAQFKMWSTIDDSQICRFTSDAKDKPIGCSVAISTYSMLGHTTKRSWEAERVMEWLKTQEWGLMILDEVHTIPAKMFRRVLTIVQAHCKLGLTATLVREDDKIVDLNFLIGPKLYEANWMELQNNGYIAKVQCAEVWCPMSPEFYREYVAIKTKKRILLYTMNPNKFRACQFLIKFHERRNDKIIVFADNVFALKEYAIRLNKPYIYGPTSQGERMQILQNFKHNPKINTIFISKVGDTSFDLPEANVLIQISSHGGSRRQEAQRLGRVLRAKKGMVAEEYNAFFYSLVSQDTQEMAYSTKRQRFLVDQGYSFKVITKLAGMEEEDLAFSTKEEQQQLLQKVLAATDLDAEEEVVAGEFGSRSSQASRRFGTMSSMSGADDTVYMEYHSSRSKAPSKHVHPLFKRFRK
Sequence of XPB–p62–p44–p34 sub-complex (P32780 whole entry, chain 2 of 4): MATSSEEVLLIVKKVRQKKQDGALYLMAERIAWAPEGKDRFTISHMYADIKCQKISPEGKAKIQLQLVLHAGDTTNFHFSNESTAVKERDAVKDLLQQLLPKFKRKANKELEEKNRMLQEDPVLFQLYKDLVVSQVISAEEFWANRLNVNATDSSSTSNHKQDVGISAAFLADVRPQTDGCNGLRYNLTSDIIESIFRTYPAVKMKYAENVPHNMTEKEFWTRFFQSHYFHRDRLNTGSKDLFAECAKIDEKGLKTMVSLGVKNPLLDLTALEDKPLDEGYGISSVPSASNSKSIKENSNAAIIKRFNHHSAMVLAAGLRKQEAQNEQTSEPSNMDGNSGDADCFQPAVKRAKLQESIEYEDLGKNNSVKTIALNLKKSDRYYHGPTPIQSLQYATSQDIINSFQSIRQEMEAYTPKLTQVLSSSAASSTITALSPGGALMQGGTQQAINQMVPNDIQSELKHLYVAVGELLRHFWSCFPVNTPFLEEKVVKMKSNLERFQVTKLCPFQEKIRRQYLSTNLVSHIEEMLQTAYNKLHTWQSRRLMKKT
Sequence of XPB–p62–p44–p34 sub-complex (Q13888 whole entry, chain 3 of 4): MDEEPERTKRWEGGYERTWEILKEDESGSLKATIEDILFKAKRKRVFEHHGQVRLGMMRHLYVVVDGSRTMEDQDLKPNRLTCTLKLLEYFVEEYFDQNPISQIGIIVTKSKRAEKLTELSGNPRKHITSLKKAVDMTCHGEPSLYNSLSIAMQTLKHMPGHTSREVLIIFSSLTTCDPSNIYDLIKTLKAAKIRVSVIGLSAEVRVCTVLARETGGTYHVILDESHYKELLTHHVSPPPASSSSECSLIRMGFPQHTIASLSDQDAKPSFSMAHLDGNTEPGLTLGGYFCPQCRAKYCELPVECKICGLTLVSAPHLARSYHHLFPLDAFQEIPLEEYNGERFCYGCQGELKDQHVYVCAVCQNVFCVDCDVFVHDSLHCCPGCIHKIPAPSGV
Sequence of XPB–p62–p44–p34 sub-complex (Q13889 whole entry, chain 4 of 4): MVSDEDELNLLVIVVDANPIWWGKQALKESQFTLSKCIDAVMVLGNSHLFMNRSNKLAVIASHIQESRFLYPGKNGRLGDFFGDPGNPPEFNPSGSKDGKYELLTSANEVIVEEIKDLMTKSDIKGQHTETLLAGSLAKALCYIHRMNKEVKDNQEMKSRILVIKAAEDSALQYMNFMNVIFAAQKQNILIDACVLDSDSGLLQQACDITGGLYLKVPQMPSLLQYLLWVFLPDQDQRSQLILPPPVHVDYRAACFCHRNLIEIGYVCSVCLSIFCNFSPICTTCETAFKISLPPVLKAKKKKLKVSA

B1: GST–p8 (natural protein, human, UniProt Q6ZYL4 1-71, looked up)
chain: MVNVLKGVLIECDPAMKQFLLYLDESNALGKKFIIQDIDDTHVFVIAELVNVLQERVGELMDQNAFSLTQK
binding result: binds
